Reference: article PMC8219681, “Inhibition of MRN activity by a telomere protein motif” (Nature Communications, 2021)
Numbering of substitutions follows the chain as printed. In names and notes the source's numbering stands. Each block holds one binder with its values, some of them ahead of it.

Key:
[1] = biological target: T1, MBP-Rif2-min (S. cerevisiae Rif2 F8E P10N), Q06208; assay: pull-down (amylose-immobilized MBP-Rif2-min bait, Western blot with anti-Rad50 antibody, quantified); conditions: chain shown with the change; three independent blots; mean with SEM; parent: est. 100; read off a plot
T1 chain: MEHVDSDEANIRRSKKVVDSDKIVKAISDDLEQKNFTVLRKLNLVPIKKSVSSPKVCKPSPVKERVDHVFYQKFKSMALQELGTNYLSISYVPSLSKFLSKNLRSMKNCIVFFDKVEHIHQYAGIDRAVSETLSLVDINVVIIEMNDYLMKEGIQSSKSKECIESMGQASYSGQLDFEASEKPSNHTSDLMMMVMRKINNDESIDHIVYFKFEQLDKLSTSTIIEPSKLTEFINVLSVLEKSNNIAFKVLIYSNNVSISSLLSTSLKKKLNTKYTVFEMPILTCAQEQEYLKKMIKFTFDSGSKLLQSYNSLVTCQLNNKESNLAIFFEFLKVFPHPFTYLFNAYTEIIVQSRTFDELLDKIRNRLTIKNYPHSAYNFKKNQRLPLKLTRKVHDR

Rif2-min = biological target: T2, Rif2-min (Saccharomyces cerevisiae, UniProt Q06208 1-395, F8E;P10N); assay: EMSA; 5 mM Mg2+, 1 mM Mn2+, 1 mM ATP; 25 mM Tris-acetate pH 7.5, 1 mM DTT, 5 mM Mg acetate, 1 mM Mn acetate, 0.25 mg/ml BSA, 1 mM PEP, 1 mM ATP, 80 U/ml pyruvate kinase, 1 nM DNA, 30 C 30 min; 6% PAGE in TAE; conditions: protein: recombinant; tags: C-terminal His (N-terminal MBP cleaved with PreScission); label: 32P; blunt
T2 sequence: T1 chain

Rif2 = biological target: T3, Rif2 (Saccharomyces cerevisiae, UniProt Q06208 1-395); assay: as above; conditions: protein: recombinant; tags: C-terminal His (N-terminal MBP cleaved with PreScission); label: 32P; blunt
T3 sequence: T1 chain with E8F, N10P

percent of parent (Relative value) [1]: 14
B1: m3; m1 Rad50:K81I; Rif2:F8E; Rif2:P10N (protein)
chain: MSAIYKLSIQGIRSFDSNDRETIEFGKPLTLIVGMNGSGKTTIIECLKYATTGDLPPNSKGGVFIHDPKITGEKDIRAQVILAFTSANGLNMIVTRNIQLLMKKTTTTFKTLEGQLVAINNSGDRSTLSTRSLELDAQVPLYLGVPKAILEYVIFCHQEDSLWPLSEPSNLKKKFDEIFQAMKFTKALDNLKSIKKDMSVDIKLLKQSVEHLKLDKDRSKAMKLNIHQLQTKIDQYNEEVSEIESQLNEITEKSDKLFKSNQDFQKILSKVENLKNTKLSISDQVKRLSNSIDILDLSKPDLQNLLANFSKVLMDKNNQLRDLETDISSLKDRQSSLQSLSNSLIRRQGELEAGKETYEKNRNHLSSLKEAFQHKFQGLSNIENSDMAQVNHEMSQFKAFISQDLTDTIDQFAKDIQLKETNLSDLIKSITVDSQNLEYNKKDRSKLIHDSEELAEKLKSFKSLSTQDSLNHELENLKTYKEKLQSWESENIIPKLNQKIEEKNNEMIILENQIEKFQDRIMKTNQQADLYAKLGLIKKSINTKLDELQKITEKLQNDSRIRQVFPLTQEFQRADLEMDFQKLFINMQKNIAINNKKMHELDRRYTNALYNLNTIEKDLQDNQKSKEKVIQLLSENLPEDCTIDEYNDVLEETELSYKTALENLKMHQTTLEFNRKALEIAERDSCCYLCSRKFENESFKSKLLQELKTKTDANFEKTLKDTVQNEKEYLHSLRLLEKHIITLNSINEKIDNSQKCLEKAKEETKTSKSKLDELEVDSTKLKDEKELAESEIRPLIEKFTYLEKELKDLENSSKTISEELSIYNTSEDGIQTVDELRDQQRKMNDSLRELRKTISDLQMEKDEKVRENSRMINLIKEKELTVSEIESSLTQKQNIDDSIRSKRENINDIDSRVKELEARIISLKNKKDEAQSVLDKVKNERDIQVRNKQKTVADINRLIDRFQTIYNEVVDFEAKGFDELQTTIKELELNKAQMLELKEQLDLKSNEVNEEKRKLADSNNEEKNLKQNLELIELKSQLQHIESEISRLDVQNAEAERDKYQEESLRLRTRFEKLSSENAGKLGEMKQLQNQIDSLTHQLRTDYKDIEKNYHKEWVELQTRSFVTDDIDVYSKALDSAIMKYHGLKMQDINRIIDELWKRTYSGTDIDTIKIRSDEVSSTVKGKSYNYRVVMYKQDVELDMRGRCSAGQKVLASIIIRLALSETFGANCGVIALDEPTTNLDEENIESLAKSLHNIINMRRHQKNFQLIVITHDEKFLGHMNAAAFTDHFFKVKRDDRQKSQIEWVDINRVTY

B2: PC1253C/PC1253B 50 bp dsDNA (dsDNA)
DNA 1: AACGTCATAGACGATTACATTGCTAGGACATCTTTGCCCACGTTGACCCA
DNA 2: TGGGTCAACGTGGGCAAAGATGTCCTAGCAATGTAATCGTCTATGACGTT
modifications: 3'-terminal biotin (stated for the nuclease substrate; strand(s) ambiguous; streptavidin not mentioned for EMSA)
binding result (Rif2-min): binds
binding result (Rif2): binds
